T1: KKT4 full-length (KKT4 2-645) (Trypanosoma brucei, UniProt Q580Y8 2-645)
T1 sequence: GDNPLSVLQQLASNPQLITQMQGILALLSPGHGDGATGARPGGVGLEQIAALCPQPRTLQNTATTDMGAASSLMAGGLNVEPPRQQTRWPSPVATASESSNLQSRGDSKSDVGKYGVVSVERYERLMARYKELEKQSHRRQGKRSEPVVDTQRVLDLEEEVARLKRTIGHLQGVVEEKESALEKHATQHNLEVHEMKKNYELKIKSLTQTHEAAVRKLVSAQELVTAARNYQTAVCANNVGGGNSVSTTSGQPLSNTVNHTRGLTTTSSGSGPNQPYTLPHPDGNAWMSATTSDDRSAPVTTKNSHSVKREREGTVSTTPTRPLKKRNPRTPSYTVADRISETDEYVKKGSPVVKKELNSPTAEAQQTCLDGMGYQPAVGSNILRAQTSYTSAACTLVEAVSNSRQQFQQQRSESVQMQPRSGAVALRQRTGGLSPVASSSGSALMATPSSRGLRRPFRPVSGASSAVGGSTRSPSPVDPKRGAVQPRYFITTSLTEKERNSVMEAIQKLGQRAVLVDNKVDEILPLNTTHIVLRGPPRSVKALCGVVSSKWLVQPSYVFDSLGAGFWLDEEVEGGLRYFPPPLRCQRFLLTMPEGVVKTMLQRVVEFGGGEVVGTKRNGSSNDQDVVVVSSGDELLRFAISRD

B1: BA3098 50-bp CIR147 DNA probe (dsDNA)
DNA 1: CAATATGTAAGGTGTTTTGGTGTAAAACACGCATTCTTGCATAACATGCA
DNA 2: TGCATGTTATGCAAGAATGCGTGTTTTACACCAAAACACCTTACATATTG

Key:
[1] = biological target: KKT4^2–114 (Trypanosoma brucei); assay: SEC-MALS; KKT4 2-114 at lower concentrations; 25 mM HEPES pH 7.5, 150 mM NaCl, 0.5 mM TCEP
[2] = biological target: KKT4^2–114 (Trypanosoma brucei); assay: SEC-MALS; KKT4 2-114 at higher concentrations; 25 mM HEPES pH 7.5, 150 mM NaCl, 0.5 mM TCEP
[3] = biological target: KKT4^101–352 (Trypanosoma brucei); assay: SEC-MALS; KKT4 fragments; 25 mM HEPES pH 7.5, 150 mM NaCl, 0.5 mM TCEP
[4] = biological target: Taxol-stabilised microtubules (porcine brain tubulin) (UniProt P02550); assay: microtubule co-sedimentation assay; conditions: parent: est. 0.90; read off a plot
[5] = biological target: Synthetic KKT8 phosphopeptide (BA_peptide_2 (DBS1831-1)) (T. brucei); assay: fluorescence polarisation; fluorescence anisotropy; KKT4 463-645 (from 170 μM, serially diluted 2:3) with 100 nM 5-FAM peptide probe; 25 mM HEPES pH 7.5, 50 mM NaCl, 0.5 mM TCEP; 30 min at room temperature
[6] = biological target: SNAP-6HIS-3FLAG-KKT4 (full-length T. brucei KKT4) (Trypanosoma brucei); assay: SEC-MALS; full-length SNAP-6HIS-3FLAG-KKT4 at lower concentrations; 25 mM HEPES pH 7.5, 340 mM NaCl, 0.5 mM TCEP
[7] = biological target: SNAP-6HIS-3FLAG-KKT4 (full-length T. brucei KKT4) (Trypanosoma brucei); assay: SEC-MALS; full-length SNAP-6HIS-3FLAG-KKT4 at higher concentrations; 25 mM HEPES pH 7.5, 340 mM NaCl, 0.5 mM TCEP; Superose 6 or Superdex 200 10/300
[8] = biological target: T1, KKT4 full-length (KKT4 2-645); assay: fluorescence anisotropy; 1 nM DNA; 25 mM HEPES pH 7.5, 50 mM NaCl, 0.5 mM TCEP, 1 nM DNA, 30 min at room temperature; conditions: protein: recombinant; tags: SNAP-6HIS-3FLAG (pBA925; from Sf9); chain copies: 2; label: 5' 6-FAM; blunt (only one strand printed; 50-bp dsDNA)

Chain of Taxol-stabilised microtubules (porcine brain tubulin) (P02550 whole entry, looked up): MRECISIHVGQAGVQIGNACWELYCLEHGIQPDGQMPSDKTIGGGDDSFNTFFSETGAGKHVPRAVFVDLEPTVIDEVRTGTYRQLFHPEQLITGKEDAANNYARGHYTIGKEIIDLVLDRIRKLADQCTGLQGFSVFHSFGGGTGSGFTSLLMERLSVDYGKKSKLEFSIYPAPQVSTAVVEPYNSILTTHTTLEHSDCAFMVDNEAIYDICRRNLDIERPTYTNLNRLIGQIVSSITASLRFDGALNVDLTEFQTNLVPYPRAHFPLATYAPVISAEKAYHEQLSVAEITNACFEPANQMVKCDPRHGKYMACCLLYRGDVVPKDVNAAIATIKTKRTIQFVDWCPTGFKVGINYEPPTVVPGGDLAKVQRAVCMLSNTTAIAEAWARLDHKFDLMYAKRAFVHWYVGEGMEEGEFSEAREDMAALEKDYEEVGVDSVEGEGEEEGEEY

Row | Molecule | other: fraction bound [4] | further results
1 | KKT4^2–114 (domain or fragment) | – | stoichiometry N [1]: 3; stoichiometry N [2]: 4
2 | KKT4^101–352 (domain or fragment) | – | stoichiometry N [3]: 2
3 | KKT4^115–343 (microtubule-binding domain) K115E | 0.67 | –
4 | KKT4^115–343 (microtubule-binding domain) K132E | 0.6 | –
5 | KKT4^115–343 (microtubule-binding domain) K136E | 0.43 | –
6 | KKT4^115–343 (microtubule-binding domain) K144E | 0.44 | –
7 | KKT4^115–343 (microtubule-binding domain) K154E | 0.63 | –
8 | KKT4^115–343 (microtubule-binding domain) K166E | 0.85 | –
9 | KKT4^115–343 (microtubule-binding domain) K179E | 0.77 | –
10 | KKT4^115–343 (microtubule-binding domain) K198E | 0.8 | –
11 | KKT4^115–343 (microtubule-binding domain) K199E | 0.78 | –
12 | KKT4^115–343 (microtubule-binding domain) K204E | 0.84 | –
13 | KKT4^115–343 (microtubule-binding domain) K206E | 0.85 | –
14 | KKT4^115–343 (microtubule-binding domain) K218E | 0.89 | –
15 | KKT4^115–343 (microtubule-binding domain) R123E | 0.23 | –
16 | KKT4^115–343 (microtubule-binding domain) R126D | 0.46 | –
17 | KKT4^115–343 (microtubule-binding domain) R130D | 0.6 | –
18 | KKT4^115–343 (microtubule-binding domain) R140D | 0.48 | –
19 | KKT4^115–343 (microtubule-binding domain) R141D | 0.43 | –
20 | KKT4^115–343 (microtubule-binding domain) R145D | 0.55 | –
21 | KKT4^115–343 (microtubule-binding domain) R164D | 0.73 | –
22 | KKT4^115–343 (microtubule-binding domain) R167D | 0.74 | –
23 | KKT4^115–343 (microtubule-binding domain) R217D | 0.77 | –
24 | KKT4^115–343 (microtubule-binding domain) R230D | 0.6 | –
25 | KKT4^463–645 (KKT4 BRCT domain) (domain or fragment) | – | Kd [5]: 30 µM
26 | KKT4^463–645 K543A (domain or fragment) | – | fold decrease of binding affinity against wild-type KKT4 BRCT [5]: 10 fold
27 | SNAP-6HIS-3FLAG-KKT4 (full-length T. brucei KKT4) (natural protein) | – | stoichiometry N [6]: 2; stoichiometry N [7]: 4
28 | B1 | – | Kd [8]: 0.011 µM

Reference: PMC8443799, “Structural characterization of KKT4, an unconventional microtubule-binding kinetochore protein”
